target: vps29_human VPS29 (UniProt Q9UBQ0)

| effect of a mutation on the interaction | Substance |
| --- | --- |
| disrupting interaction strength | Vacuolar protein sorting-associated protein 35 (Homo sapiens) (from UniProt Q96QK1) F534D;F541D |
| disrupting interaction strength | Vacuolar protein sorting-associated protein 35 (Homo sapiens) (from UniProt Q96QK1) H769A;N772A;H776A |
| disrupting interaction strength | Vacuolar protein sorting-associated protein 35 (Homo sapiens) (from UniProt Q96QK1) L579D;R582D;Q586A;L589D |
| disrupting interaction strength | Vacuolar protein sorting-associated protein 35 (Homo sapiens) (from UniProt Q96QK1) N725A;Y729A |
| disrupting interaction strength | Vacuolar protein sorting-associated protein 35 (Homo sapiens) (from UniProt Q96QK1) T629D;L630A;G633D;R637D |
| disrupting interaction strength | Vacuolar protein sorting-associated protein 35 (Homo sapiens) (from UniProt Q96QK1) T672D;H675D |
